Measured values from patent publication US10501502B2, “Allophycocyanin alpha-subunit evolved labeling proteins (smURFPs)” (The Regents of the University of California, priority 2016, dated 2019).
Read-outs that look alike come from different tables or passages of the source.

What was measured:
[1] = test system: HT1080 cells; assay: FP fluorescence in HT1080 cells in vitro; format: cell-based; settings: for fold greater fluorescence than mCardinal: BVMe2
[2] = FP purification and fluorescence characterization in vitro (spectra, extinction coefficient, quantum yield); format: physicochemical
Outline: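 His-tagged FPs expressed in E. coli with PCB or BV and Ni-NTA purified; apoproteins loaded in vitro with chromophore in PBS+10% FBS at 37 °C overnight. Extinction coefficient from BV absorbance at 390 nm or BCA protein assay; quantum yield relative to Cy5; photobleaching normalised to 1,000 photons/molecule/s.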

[3] = Native PAGE quaternary structure / stoichiometry; format: physicochemical; settings: for stoichiometry: Table 5
Procedure: Native PAGE was run using NativePAGE Novex Bis-Tris Gel System (Life Technologies) on Native PAGE 4-16% Bis-Tris protein gels (Life Technologies). SDS-denaturing PAGE was run using NuPAGE MOPS SDS running buffer (Life Technologies) and NuPAGE Novex 4-12% Bis-Tris gels (Life Technologies). Precision Plus Protein Dual Color Standards (Bio-Rad) were used as an MW ladder. Zinc blot was performed after running the SDS-PAGE gel using the described method^44. Fluorescence was imaged using a BioSpectrum AC Imaging System (UVP) with EX/EM=535(45)/605(70) nm for tdTomato, EX/EM=650(13)/690(50) nm for smURFP and TDsmURFP, EX/EM=685(40)/710LP nm for IFP1.4 and BV+zinc.

[4] = smURFP/TDsmURFP + 1 or 2 chromophore, Table 7

| Molecule | Emission Maximum ([2]; Table 5) [nm] | Excitation Maximum ([2]; Table 5) [nm] | Extinction Coefficient ([2]; Table 5) | Quantum Yield ([2]; Table 5) [%] | molecular brightness relative to eGFP ([2]; Table 5) [%] | Emission Maximum [2, 4] [nm] | Excitation Maximum [2, 4] [nm] | Extinction Coefficient [2, 4] | Quantum Yield [2, 4] [%] | stoichiometry [3] | further results |
| --- | --- | --- | --- | --- | --- | --- | --- | --- | --- | --- | --- |
| smURFP: small ultra-red fluorescent protein, SEQ ID NO: 13, homodimer, covalently attaches biliverdin (protein, homodimer; biliverdin chromophore; smRUFP Variant Polypeptide) MKTSEQRVNIATLLTENKKKIVDKASQDLWRRHPDLIAPGGIAFSQRDRALCLRDYGWFLHLITFCLLAGDKGPIESIGLISIREMYNSLGVPVPAMMESIRCLKEASLSLLDEEDANETAPYFDYIIKAMS | 670 | 642 | 180,000 ^ m^−1cm^−1/chromophore | 18 | 96 | 670 | 642 | 180,000 M^−1 cm^−1 | 18 | Dimer | fluorescence relative to mCherry in HT1080 cells in vitro ([1]; 12.5 μM BV for 3 h): equivalent; fold greater fluorescence than mCardinal ([1]; HT1080, T2A construct): 4 fold; Emission Maximum [2]: 670 nm; extinction coefficient (EC) [2]: 180,000 M^−1cm^−1; increase of BV QY after covalent attachment to smURFP [2]: ~1,400 fold; quantum yield (QY) [2]: 18%; Molecular Brightnes Relative to smURFP ([2]; Table 4): 100%; Quantum Yield ([2]; b72, as fraction): 0.20; brightness relative to most red or far-red fluorescent proteins derived from coral ([2]; biophysical brightness): ~2 fold; Emission Maximum ([2]; evolved APCα FPs, Table 4): 670 nm; Excitation Maximum ([2]; evolved APCα FPs, Table 4): 642 nm; Extinction Coefficient ([2]; evolved APCα FPs, Table 4): 180,000 M^−1 cm^−1; Quantum Yield ([2]; evolved APCα FPs, Table 4): 18%; excitation (absorption) maximum ([2]; running text and figure legends): 642 nm; quaternary structure on native gel [3]: homodimer |
| smURFP + BVMe2: smURFP with a single biliverdin dimethyl ester chromophore (protein, left off: small tags and cut ends, smURFP with a single biliverdin dimethyl ester chromophore) MKTSEQRVNIATLLTENKKKIVDKASQDLWRRHPDLIAPGGIAFSQRDRALCLRDYGWFLHLITFCLLAGDKGPIESIGLISIREMYNSLGVPVPAMMESIRCLKEASLSLLDEEDANETAPYFDYIIKAMS | 672 | 646 | 65,000^ m^−1cm^−1/chromophore | 12 | 23 | 672 | 646 | 65,000 M^−1 cm^−1 | 12 | Dimer | fold greater fluorescence than mCardinal ([1]; HT1080 stable lines expressing each FP separately): 2 fold |
